Measured values as given in paper doi:10.1101/640771 (bioRxiv, 2019).

Target: T1, ALFA-tagged target immobilised for SPR with NbALFA (TST-NEDD8-ALFA or GFP-ALFA) (synthetic (designed ALFA-tag))
T1 chain: SRLEEELRRRLTE
Assay: SPR

Kd: ~0.026 nM
B1: NbALFA (non-tagged) (VHH)
VHH: EVQLQESGGGLVQPGGSLRLSCTASGVTISALNAMAMGWYRQAPGERRVMVAAVSERGNAMYRESVQGRFTVTRDFTNKMVSLQMDNLKPEDTAVYYCHVLEDRVDSFHDYWGQGTQVTVSS
